Results on one molecule are retold here after paper PMC3417120 (Cancer research, 2012).

For orientation: Kd means the free concentration of one partner at which half of the binding sites on the other are occupied at equilibrium, for simple one-to-one binding.

This assay addresses p53, recombinant (UniProt P04637 1-393). The assay is described as follows: BLI.

Sequence of p53, recombinant (P04637 whole entry): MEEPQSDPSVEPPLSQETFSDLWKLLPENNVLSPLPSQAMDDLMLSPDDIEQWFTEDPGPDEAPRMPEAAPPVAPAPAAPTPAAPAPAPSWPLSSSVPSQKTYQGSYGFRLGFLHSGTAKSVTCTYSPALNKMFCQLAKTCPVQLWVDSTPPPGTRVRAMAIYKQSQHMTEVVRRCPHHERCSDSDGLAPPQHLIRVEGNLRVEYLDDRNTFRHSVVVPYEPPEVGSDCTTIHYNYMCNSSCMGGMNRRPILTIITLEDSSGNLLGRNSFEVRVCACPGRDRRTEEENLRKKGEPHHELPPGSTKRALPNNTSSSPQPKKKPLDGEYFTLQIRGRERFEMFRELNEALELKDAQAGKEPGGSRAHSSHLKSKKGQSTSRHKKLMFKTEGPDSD

B1: recombinant HMGB1 B box (domain or fragment)
chain: KFKDPNAPKRPPSAFFLFCSEYRPKIKGEHPGLSIGDVAKKLGEMWNNTAADDKQPYEKKAAKLKEKYEKDIAAY
modifications: Limits not given; 88-162 is the usual B box construct of the source laboratory (Tracey).
In the case of B1, the dissociation constant (Kd) worked out at 14.5 nM.
